The source of these data is patent US20240156864A1.

The target of this experiment is CAR19.28ζ. Description: co-IP with anti-CAR19 Ab from CAR-T cell lysate, LC-MS/MS.
CAR19.28ζ, sequence (chain, as listed by the source limits assumed): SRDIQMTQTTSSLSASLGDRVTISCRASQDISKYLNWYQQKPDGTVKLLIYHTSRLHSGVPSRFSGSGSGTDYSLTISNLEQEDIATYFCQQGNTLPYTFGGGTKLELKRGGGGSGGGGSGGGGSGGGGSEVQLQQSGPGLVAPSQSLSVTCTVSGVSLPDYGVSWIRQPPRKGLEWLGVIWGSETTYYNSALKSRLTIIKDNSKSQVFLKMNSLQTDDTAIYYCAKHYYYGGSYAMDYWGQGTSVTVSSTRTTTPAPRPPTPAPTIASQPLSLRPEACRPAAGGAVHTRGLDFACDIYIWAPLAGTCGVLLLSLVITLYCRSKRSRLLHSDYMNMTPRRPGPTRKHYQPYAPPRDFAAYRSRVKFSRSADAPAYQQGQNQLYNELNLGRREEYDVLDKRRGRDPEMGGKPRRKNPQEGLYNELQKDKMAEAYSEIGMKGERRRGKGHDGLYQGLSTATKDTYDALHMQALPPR
“CD8α (from UniProt P01732 22-235) (receptor)” came in with an Area of 1.59e+08 and a Coverage of 32%.
With “LCK (from UniProt P06239 2-509) (enzyme)”, the Area came to 6.84e+08 and the Coverage is 32%.
In the case of “PIK3CD (from UniProt O00329 1-1044) (enzyme)”, the Area amounted to 1.79e+08 and the Coverage was 13%.
PIK3R1 (from UniProt P27986 2-724) yielded an Area of 2.3e+08 and a Coverage of 17%.
For the substance THEMIS (from UniProt Q8N1K5 1-641), the Area came out at 1.89e+07, the Coverage was 3% and the Peptides (number identified) was 2.
